Patent US11278600B2, “Human alpha-galactosidase variants” (Codexis, Inc., priority 2014, dated 2022)

Columns and labels:
Format in all cases: biochemical
[1] = HTP-analysis of supernatants pretreated with acid (MUGal hydrolysis); conditions: activity of the variant/activity of Rd4BB (SEQ ID NO: 15); challenge at pH 3.7
In short: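 Supernatants from INVSc1 yeast secreting GLA variants were challenged at 37° C. for 1-3 h in McIlvaine buffer at pH 3.3-4.3. Residual activity was then measured on 4 mM MUGal substrate stock at pH 4.8 with citrate buffer pH 4.3, over 30-180 min at 37° C. Reactions were quenched with sodium carbonate and read by fluorescence (Ex 355/Em 448 nm).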

[2] = HTP-analysis of yeast culture supernatants, no challenge (MUGal hydrolysis); conditions: activity of the variant/activity of Rd4BB (SEQ ID NO: 15)
In short: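 GLA variants were expressed in INVSc1 yeast grown in SD-Ura broth with glucose at 30° C., and culture supernatants were collected after 66-84 h. Supernatant was mixed with McIlvaine buffer pH 4.8 and MUGal (2 mM stock) in 50 mM citrate, 200 mM KCl, pH 4.6, incubated at 37° C. for 30-180 minutes, then quenched with sodium carbonate.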

[3] = HTP-analysis of supernatants pretreated with base (MUGal hydrolysis); conditions: activity of the variant/activity of Rd4BB (SEQ ID NO: 15); challenge at pH 9.65
In short: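 Fluorescence of released 4-MU (Ex 355 nm, Em 448 nm) after carbonate quench reports MUGal hydrolysis by GLA variants secreted from INVSc1 yeast. Before the acidic (pH 4.3-4.8) 30-180 min reaction at 37° C, supernatants had been pre-incubated at pH 7.0-9.7 for 1-18 h at 37° C.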

Row | Molecule | Relative Activity of GLA Variants After Challenge at pH 3.7 [1] | Relative Activity of GLA Variants After No Challenge (NC) [2] | Relative Activity of GLA Variants After Challenge at pH 9.65 [3]
1 | 494 (protein, Synthetic Polypeptide sequence of Variant No. 494 of mature Human GLA) LDNGLARTPTMGWLHWERFMCNLDCQEEPDSCISEKLFMEMAERMVSEGWKDAGYEYLCIDDCWMAPQRDSEGRLQADPQRFPHGIRQLANYVHSKGLKLGIYADVGNKTCAGFPGSFGYYDIDAQTFADWGVDLLKFDGCYCDSLENLADGYKHMSLALNRTGRSIVYSCEWPLYMWPFQKPNYTEIRQYCNHWRNFADIDDSWKSIKSILDWTSFNQERIVDVAGPGGWNDPDMLVIGNFGLSWNQQVTQMALWAIMAAPLFMSNDLRHISPQAKALLQDKDVIAINQDPLGKQGYQLRQGDNFEVWERPLSGLAWAVAMINRQEIGGPRSYTIAVASLGKGVACNPACFITQLLPVKRKLGFYEWTSRLRSHINPTGTVLLQLENTFQMSLKDLL | + (0.5 to 1.5 relative activity over Rd4BB (SEQ ID NO: 15)) | + (0.5 to 1.5 relative activity over Rd4BB (SEQ ID NO: 15)) | + (0.5 to 1.5 relative activity over Rd4BB (SEQ ID NO: 15))
2 | 500 (protein, Synthetic Polypeptide sequence of Variant No. 500 of mature Human GLA) LDNGLARTPTMGWLHWERFMCNLDCQEEPDSCISEKLFMEMAERMVSEGWKDAGYEYLCIDDCWMAPQRDSEGRLQADPQRFPHGIRQLANYVHSKGLKLGIYADVGNKTCAGFPGSFGYYDIDAQTFADWGVDLLKFDGCYCDSLENLADGYKHMSLALNRTGRSIVYSCEWPLYMWPFQKPNYTEIRQYCNHWRNFADIDDSWKSIKSILDWTSFNQERIVDVAGPGGWNDPDMLVIGNFGLSWNQQVTQMALWAIMAAPLFMSNDLRHISPQAKALLQDKDVIAINQDPLGKQGYQLRQGDNFEVWERPLSGLAWAVAMINRQEIGGPRSYTIAVASLGKGVACNPACFITQLLPVKRKLGFYEWTSRLRSHINPTGTVLLQLENTAQMSLKDLL | + (0.5 to 1.5 relative activity over Rd4BB (SEQ ID NO: 15)) | + (0.5 to 1.5 relative activity over Rd4BB (SEQ ID NO: 15)) | + (0.5 to 1.5 relative activity over Rd4BB (SEQ ID NO: 15))
3 | 497 (protein, Synthetic Polypeptide sequence of Variant No. 497 of mature Human GLA) LDNGLARTPTMGWLHWERFMCNLDCQEEPDSCISEKLFMEMAERMVSEGWKDAGYEYLCIDDCWMAPQRDSEGRLQADPQRFPHGIRQLANYVHSKGLKLGIYADVGNKTCAGFPGSFGYYDIDAQTFADWGVDLLKFDGCYCDSLENLADGYKHMSLALNRTGRSIVYSCEWPLYMWPFQKPNYTEIRQYCNHWRNFADIDDSWKSIKSILDWTSFNQERIVDVAGPGGWNDPDMLVIGNFGLSWNQQVTQMALWAIMAAPLFMSNDLRHISPQAKALLQDKDVIAINQDPLGKQGYQLRQGDNFEVWERPLSGLAWAVAMINRQEIGGPRSYTIAVASLGKGVACNPACFITQLLPVKRKLGFYEWTSRLRSHINPTGTVLLQLENTKQMSLKDLL | ++ (>1.5 to 2.5 relative activity over Rd4BB (SEQ ID NO: 15)) | + (0.5 to 1.5 relative activity over Rd4BB (SEQ ID NO: 15)) | + (0.5 to 1.5 relative activity over Rd4BB (SEQ ID NO: 15))
4 | 495 (protein, Synthetic Polypeptide sequence of Variant No. 495 of mature Human GLA) LDNGLARTPTMGWLHWERFMCNLDCQEEPDSCISEKLFMEMAERMVSEGWKDAGYEYLCIDDCWMAPQRDSEGRLQADPQRFPHGIRQLANYVHSKGLKLGIYADVGNKTCAGFPGSFGYYDIDAQTFADWGVDLLKFDGCYCDSLENLADGYKHMSLALNRTGRSIVYSCEWPLYMWPFQKPNYTEIRQYCNHWRNFADIDDSWKSIKSILDWTSFNQERIVDVAGPGGWNDPDMLVIGNFGLSWNQQVTQMALWAIMAAPLFMSNDLRHISPQAKALLQDKDVIAINQDPLGKQGYQLRQGDNFEVWERPLSGLAWAVAMINRQEIGGPRSYTIAVASLGKGVACNPACFITQLLPVKRKLGFYEWTSRLRSHINPTGTVLLQLENPMQMSLKDLL | + (0.5 to 1.5 relative activity over Rd4BB (SEQ ID NO: 15)) | + (0.5 to 1.5 relative activity over Rd4BB (SEQ ID NO: 15)) | + (0.5 to 1.5 relative activity over Rd4BB (SEQ ID NO: 15))
5 | 496 (protein, Synthetic Polypeptide sequence of Variant No. 496 of mature Human GLA) LDNGLARTPTMGWLHWERFMCNLDCQEEPDSCISEKLFMEMAERMVSEGWKDAGYEYLCIDDCWMAPQRDSEGRLQADPQRFPHGIRQLANYVHSKGLKLGIYADVGNKTCAGFPGSFGYYDIDAQTFADWGVDLLKFDGCYCDSLENLADGYKHMSLALNRTGRSIVYSCEWPLYMWPFQKPNYTEIRQYCNHWRNFADIDDSWKSIKSILDWTSFNQERIVDVAGPGGWNDPDMLVIGNFGLSWNQQVTQMALWAIMAAPLFMSNDLRHISPQAKALLQDKDVIAINQDPLGKQGYQLRQGDNFEVWERPLSGLAWAVAMINRQEIGGPRSYTIAVASLGKGVACNPACFITQLLPVKRKLGFYEWTSRLRSHINPTGTVLLQLENTVQMSLKDLL | + (0.5 to 1.5 relative activity over Rd4BB (SEQ ID NO: 15)) | + (0.5 to 1.5 relative activity over Rd4BB (SEQ ID NO: 15)) | + (0.5 to 1.5 relative activity over Rd4BB (SEQ ID NO: 15))
6 | 498 (protein, Synthetic Polypeptide sequence of Variant No. 498 of mature Human GLA) LDNGLARTPTMGWLHWERFMCNLDCQEEPDSCISEKLFMEMAERMVSEGWKDAGYEYLCIDDCWMAPQRDSEGRLQADPQRFPHGIRQLANYVHSKGLKLGIYADVGNKTCAGFPGSFGYYDIDAQTFADWGVDLLKFDGCYCDSLENLADGYKHMSLALNRTGRSIVYSCEWPLYMWPFQKPNYTEIRQYCNHWRNFADIDDSWKSIKSILDWTSFNQERIVDVAGPGGWNDPDMLVIGNFGLSWNQQVTQMALWAIMAAPLFMSNDLRHISPQAKALLQDKDVIAINQDPLGKQGYQLRQGDNFEVWERPLSGLAWAVAMINRQEIGGPRSYTIAVASLGKGVACNPACFITQLLPVKRKLGFYEWTSRLRSHINPTGTVLLQLENTMQISLKDLL | + (0.5 to 1.5 relative activity over Rd4BB (SEQ ID NO: 15)) | + (0.5 to 1.5 relative activity over Rd4BB (SEQ ID NO: 15)) | + (0.5 to 1.5 relative activity over Rd4BB (SEQ ID NO: 15))
7 | 499 (protein, Synthetic Polypeptide sequence of Variant No. 499 of mature Human GLA) LDNGLARTPTMGWLHWERFMCNLDCQEEPDSCISEKLFMEMAERMVSEGWKDAGYEYLCIDDCWMAPQRDSEGRLQADPQRFPHGIRQLANYVHSKGLKLGIYADVGNKTCAGFPGSFGYYDIDAQTFADWGVDLLKFDGCYCDSLENLADGYKHMSLALNRTGRSIVYSCEWPLYMWPFQKPNYTEIRQYCNHWRNFADIDDSWKSIKSILDWTSFNQERIVDVAGPGGWNDPDMLVIGNFGLSWNQQVTQMALWAIMAAPLFMSNDLRHISPQAKALLQDKDVIAINQDPLGKQGYQLRQGDNFEVWERPLSGLAWAVAMINRQEIGGPRSYTIAVASLGKGVACNPACFITQLLPVKRKLGFYEWTSRLRSHINPTGTVLLQLENLMQMSLKDLL | + (0.5 to 1.5 relative activity over Rd4BB (SEQ ID NO: 15)) | + (0.5 to 1.5 relative activity over Rd4BB (SEQ ID NO: 15)) | + (0.5 to 1.5 relative activity over Rd4BB (SEQ ID NO: 15))
8 | 371 (protein, Synthetic Polypeptide sequence of Variant No. 371 of mature Human GLA) LDNGLARTPTMGWLHWERFMCNLDCQEEPDSCISEKLFMEMAEWMVSEGWKDAGYEYLCIDDCWMAPQRDSEGRLQADPQRFPHGIRQLANYVHSKGLKLGIYADVGNKTCAGFPGSFGYYDIDAQTFADWGVDLLKFDGCYCDSLENLADGYKHMSLALNRTGRSIVYSCEWPLYMWPFQKPNYTEIRQYCNHWRNFADIDDSWKSIKSILDWTSRNQERIVDVAGPGGWNDPDMLVIGNFGLSWDQQVTQMALWAIMAAPLFMSNDLRHISPQAKALLQDKDVIAINQDPLGKQGYQLRKGDNFEVWERPLSGDAWAVAIINRQEIGGPRSYTIPVASLGKGVACNPACFITQLLPVKRQLGFYNWTSRLKSHINPTGTVLLQLENTMQMSLKDLL | − (<0.5 relative activity over Rd4BB (SEQ ID NO: 15)) | + (0.5 to 1.5 relative activity over Rd4BB (SEQ ID NO: 15)) | + (0.5 to 1.5 relative activity over Rd4BB (SEQ ID NO: 15))
